Test results as given in patent publication US20210332115A1.

Target: cynomolgus monkey factor Bb (cynomolgus monkey)
Assay: BLI Octet, biotinylated antibody on SA biosensors

Kd [nM]	Binder
11	Anti-factor Bb mouse monoclonal antibody (antibody, V domains shown) VH: EVQLVESGGALVKPGGSLKLSCAASGFTFSNYAMSWVRQTPEKRLEWVATISNRGSYTYYPDSVKGRFTISRDNAKNTLYLQMSSLRSEDTALYYCARERPMDYWGQGTSVTVSS VL: DIVMTQSHKFMSTSVGDRVSITCKASQDVGTAVAWYQQKPGQSPKLLIYWASTRHTGVPDRFTGSGSGTDFTLTITNVQSEDLAVYFCHQHSSNPLTFGAGTKLELK
16	VH7/Vκ7 (antibody, V domains shown) VH: EVQLVESGGGLVKPGGSLRLSCAASGFTFSNYAMSWVRQTPEKRLEWVATISNRGSYTYYPDSVKGRFTISRDNAKNSLYLQMNSLRAEDTALYYCARERPMDYWGQGTLVTVSS VL: DIQMTQSPSTLSASVGDRVTITCKASQDVGTAVAWYQQKPGKAPKLLIYWASTRHTGVPDRFSGSGSGTDFTLTISSLQAEDFAVYFCHQHSSNPLTFGQGTKLEIK
11	VH6/Vκ6 (antibody, V domains shown) VH: EVQLVESGGGLVKPGGSLRLSCAASGFTFSNYAMSWVRQAPGKRLEWVATISNRGSYTYYPDSVKGRFTISRDNAKNSLYLQMNSLRAEDTALYYCARERPMDYWGQGTLVTVSS VL: DIVMTQSPSFLSASVGDRVTITCKASQDVGTAVAWYQQKPGKAPKLLIYWASTRHTGVPDRFTGSGSGTDFTLTISSLQSEDFAVYFCHQHSSNPLTFGQGTKLEIK
11	VH4/Vκ7 (antibody, V domains shown) VH: EVQLVESGGGLVKPGGSLRLSCAASGFTFSNYAMSWVRQAPGKRLEWVATISNRGSYTYYPDSVKGRFTISRDNAKNSLYLQMSSLRSEDTALYYCARERPMDYWGQGTSVTVSS VL: DIQMTQSPSTLSASVGDRVTITCKASQDVGTAVAWYQQKPGKAPKLLIYWASTRHTGVPDRFSGSGSGTDFTLTISSLQAEDFAVYFCHQHSSNPLTFGQGTKLEIK
